Residue numbers refer to the chain shown, from its start.
B1: mAb 250 (antibody, V domains shown)
VH: QVQLVESGGGVVQPGRSLRLSCAASGFTFSTYGMHWVRQAPGKGLEWVAVLWSDGRSKYYADSVQGRFTISRDNSKNTLFLQMSSLRAEDTAVYYCAREPYYDFWSGYYTGYMDVWGKGTTVTVSS
VL: DIQMTQSPSSLSASVGDRVTITCRASQGIRNDLGWYQQKPGKAPKRLIYAASSLQGGVPSRFSGSGSGTEFTLTISSLQPEDFATYYCLQHNSYPRTFGQGTKVEIK
notes: VH/VL only
B2: mAb 196 (antibody, V domains shown)
VH: QEQLVESGGGVVQSGRSLRLSCVASGFKFSGYGMHWVRQAPGKGLEWVAIIYYDGKNKYYADSVKGRFTVSRDNSKNTLYLQMNSLRAEDTAVYYCTRGAGYNWFDSWGQGTLVTVSS
VL: EIVMTQSPATLSVSPGERATLSCRASQSVRNNLAWYQQKPGQAPRLLIYGVSTRATAFPARFSGSGSGTEFTLTISSLQSEDFAVYYCQQYNNWPLTFGGGTKVEIK
notes: VH/VL only
B3: mAb 225 (antibody, V domains shown)
VH: QEQLVESGGGVVQPGGSLRLSCAASGFKFSGYGMHWVRQAPGKGLEWVAIIWYNGRKTYYAESVKGRFTISRDNSKNTLSLQMNRLRVEDTAVYYCTAGQGYNWFDPWGQGTLVTVSS
VL: B2 VL with R30S, N31S, V51A, A57G, F58I, Y91F, N93A, V104M
notes: VH/VL only
B4: mAb 240 (antibody, V domains shown)
VH: B2 VH with E2G, Q3K, S14P, K28T, G42N, V70I, M83L, T97V, A100P, S107P
VL: EIVLTQSPDFQSVTPKEKVTITCRASQNIGSSLHWYQQKPDQSPKLLIKHASQSFSGVPSRFSGSGSGTDFTLTINSLEAEDAATYYCHQSSSLPYTFGQGTKLEIK
notes: VH/VL only
B5: mAb 219 (antibody, V domains shown)
VH: B3 VH with K28M, A61T, R85S
VL: B2 VL with R30S, N31S, V51A, A57G, F58I, Y91F, N93A, V104M
notes: VH/VL only
B6: mAb 220 (antibody, V domains shown)
VH: B3 VH with A23V, K28T, R85S, A98T, Q100K
VL: B2 VL with R30S, N31S, V51A, A57G, F58I, Y91F, N93A, V104M
notes: VH/VL only
B7: mAb 213 (antibody, V domains shown)
VH: B3 VH with K28T, R85S, A98T, Q100K
VL: B2 VL with R30S, N31S, V51A, A57G, F58I, Y91F, N93A, V104M
notes: VH/VL only
B8: mAb 228 (antibody, V domains shown)
VH: EVQLLESGGGLVQPGGSLRLSCAASGFTFSNYAMNWVRQAPGKGLEWVSTISGSGGGKYYADSVKGRFTISRDNSKNTLYLHMNSLRAEDTAVYYCAKDPVQDRYYFYYYYMDVWGKGTTVTVSS
VL: B4 VL with N28S, H50Y, F55I, T85A, Y96H
notes: VH/VL only
B9: mAb 229 (antibody, V domains shown)
VH: QEQLVESGGGVVQPGRSLRLSCAASGFTFSSYGMHWVRQAPGKGLEWVAIIYYNGKKKDYADSVKGRFTISRDNSKNTLYLQMNSLRAEDTAVYYCARGLGYNWFDPWGQGTLVTVSS
VL: B4 VL with N28S, H50Y
notes: VH/VL only
B10: mAb 248 (antibody, V domains shown)
VH: QVKLVESGGGVVQPGRSLRLSCVASGFTFSGYGMHWVRQAPGKGLEWVAIIYYDGKNKYYVDSVKGRFTISRDNSKNTLYLQLNSLRAEDTAVYYCVRGPGYNWFDHWGQGTLVTVAS
VL: B4 VL with N28S, H50Y
notes: VH/VL only
B11: mAb 230 (antibody, V domains shown)
VH: B8 VH with N31S, N35S, T50S, G57S, K58R, H82Q
VL: B4 VL with N28S, H50Y, F55I, T85A, Y96H
notes: VH/VL only
B12: mAb 212 (antibody, V domains shown)
VH: EVQLLESGGGLVQPGGSLRLSCAASGFTFSNYAMNWVRQAPGKGLEWVSAISGSRSNTYYADSVKGRFTISRDNSKNTLYLQMNSLRAEDTGVYYCAKGAYSKYPYYYYMDVWGKGTTVTVSS
VL: EIVMTQSPATLSLSPGERATLSCRASQSVSSSYLSWYQQKPGQAPRLLIYGASTRAIGIPARFSGSGSGTDFTLTISSLQAEDFAVYYCQQDDNLPWTFGQGTKVEIK
notes: VH/VL only
B13: mAb 214 (antibody, V domains shown)
VH: B12 VH with G92A
VL: B12 VL
notes: VH/VL only
B14: mAb 237 (antibody, V domains shown)
VH: EVQLLESGGDLVQPGGSLRLTCAASGFTFRSYAMNWVRQAPGKGLEWVSTISSRGDTTNYADSVKGRFTISRDTSKNTLYLQMDNLRADDTAVYYCSKMFSYYYYYMDVWGKGTTVTVSS
VL: SYELTQPLSVSVALGQTARITCGGNNIGSKDVHWYQQKPGQAPVLVIYRDSNRPSGIPERFSGSNSGNTATLTISRAQAGDEADYYCQVWDSRTAVFGGGTQLTAL
notes: VH/VL only
B15: mAb 238 (antibody, V domains shown)
VH: B14 VH
VL: B14 VL with R93S
notes: VH/VL only

Columns and labels:
[1] = target: T1, human CD3 expressed on cells (Jurkat cells; human primary T cells) (human, UniProt P07766 23-207; P04234 22-171; P09693 23-182); test: flow cytometry, 25 nM, Jurkat cells
T1 construct: whole, on cells
T1 sequence (P07766 23-207, chain 1 of 3): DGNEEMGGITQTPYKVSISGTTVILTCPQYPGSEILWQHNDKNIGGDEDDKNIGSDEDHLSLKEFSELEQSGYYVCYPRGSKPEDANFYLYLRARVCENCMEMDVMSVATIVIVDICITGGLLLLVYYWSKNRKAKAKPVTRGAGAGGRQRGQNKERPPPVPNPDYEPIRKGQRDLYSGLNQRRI
T1 sequence (P04234 22-171, chain 2 of 3): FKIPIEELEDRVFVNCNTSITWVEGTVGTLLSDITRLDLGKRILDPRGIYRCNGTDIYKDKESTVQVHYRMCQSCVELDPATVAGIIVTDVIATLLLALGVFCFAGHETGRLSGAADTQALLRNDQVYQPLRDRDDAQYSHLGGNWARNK
T1 sequence (P09693 23-182, chain 3 of 3): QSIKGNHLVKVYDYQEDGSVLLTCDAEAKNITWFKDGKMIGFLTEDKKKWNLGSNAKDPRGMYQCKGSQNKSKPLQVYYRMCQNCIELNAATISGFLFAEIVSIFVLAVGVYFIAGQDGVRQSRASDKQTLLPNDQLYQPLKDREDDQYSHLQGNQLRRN
Protocol: (§1) Purified antibodies were confirmed to bind CD3 expressed on cells using the CytoFLEX S or LX flow cytometers (Beckman Coulter). Antibodies were diluted to 25 nM in FACS buffer (PBS+2% FBS) and were incubated with CD3-expressing cells for 30 minutes at 4° C. […] The median fluorescence intensity of the binding signal for each antibody was normalized to the isotype control to obtain a fold over isotype value. An antibody with a fold over isotype (FOI) of ≥10 was considered to be positive for binding.

[2] = target: T2, cynomolgus monkey CD3 expressed on cyno primary T cells (cynomolgus monkey, UniProt Q95LI5 22-198; Q95LI8 22-171; Q95LI7 23-181); test: flow cytometry, cyno primary T cells
T2 construct: whole, on cells; CD3 complex on purified cynomolgus monkey CD3 pan T cells; also called cyno CD3
T2 sequence (Q95LI5 22-198, chain 1 of 3): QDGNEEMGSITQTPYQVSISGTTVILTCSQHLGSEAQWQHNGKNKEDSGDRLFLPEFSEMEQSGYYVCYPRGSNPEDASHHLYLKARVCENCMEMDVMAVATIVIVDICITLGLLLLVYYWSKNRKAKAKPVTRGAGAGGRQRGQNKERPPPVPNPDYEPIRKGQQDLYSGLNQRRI
T2 sequence (Q95LI8 22-171, chain 2 of 3): as the sequence (P04234 22-171, chain 2 of 3) above, with I5V, N15K, I20V, S32T, D33N, I34N, T64A, S74N, V83L, H141R counted along it
T2 sequence (Q95LI7 23-181, chain 3 of 3): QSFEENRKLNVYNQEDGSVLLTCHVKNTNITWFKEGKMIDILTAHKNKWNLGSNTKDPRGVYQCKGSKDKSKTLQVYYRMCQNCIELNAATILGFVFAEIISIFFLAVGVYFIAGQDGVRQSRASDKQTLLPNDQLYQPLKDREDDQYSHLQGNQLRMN
Method in brief: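 Antibodies at 25 nM in PBS + 2% FBS were incubated with CD3-expressing cells for 30 min at 4 °C and read by flow cytometry. Median fluorescence intensity was normalized to isotype control as fold over isotype; ≥10 counted as binding.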

[3] = target: T1, human CD3 expressed on cells (Jurkat …); test: flow cytometry, 25 nM, human primary T cells
Protocol: as §1

Binder	Binding (FOI) [1]	binding result [2]	Binding (FOI) [3]
B1	125 FOI	no binding (tested: FOI <10 (FOI >=10 = positive); 25 nM)	109 FOI
B2	172 FOI	no binding (tested: FOI <10 (FOI >=10 = positive); 25 nM)	224 FOI
B3	210 FOI	no binding (tested: FOI <10 (FOI >=10 = positive); 25 nM)	267 FOI
B4	177 FOI	no binding (tested: FOI <10 (FOI >=10 = positive); 25 nM)	216 FOI
B5	175 FOI	no binding (tested: FOI <10 (FOI >=10 = positive); 25 nM)	245 FOI
B6	181 FOI	no binding (tested: FOI <10 (FOI >=10 = positive); 25 nM)	243 FOI
B7	192 FOI	no binding (tested: FOI <10 (FOI >=10 = positive); 25 nM)	248 FOI
B8	159 FOI	no binding (tested: FOI <10 (FOI >=10 = positive); 25 nM)	105 FOI
B9	180 FOI	no binding (tested: FOI <10 (FOI >=10 = positive); 25 nM)	250 FOI
B10	174 FOI	no binding (tested: FOI <10 (FOI >=10 = positive); 25 nM)	203 FOI
B11	141 FOI	no binding (tested: FOI <10 (FOI >=10 = positive); 25 nM)	55.3 FOI
B12	150 FOI	no binding (tested: FOI <10 (FOI >=10 = positive); 25 nM)	160 FOI
B13	150 FOI	no binding (tested: FOI <10 (FOI >=10 = positive); 25 nM)	162 FOI
B14	217 FOI	no binding (tested: FOI <10 (FOI >=10 = positive); 25 nM)	293 FOI
B15	185 FOI	no binding (tested: FOI <10 (FOI >=10 = positive); 25 nM)	266 FOI

From patent publication US20230295310A1 (ABCELLERA BIOLOGICS, published 2023)
